{"source": "the nanobody polyreactivity screen of Harvey et al. (2022)"}
{"assay": "yeast display, Sf9 membrane polyspecificity reagent, FACS + sequencing; frameworks hold sequencing errors", "method_in_brief": "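Synthetic nanobody libraries on Saccharomyces cerevisiae BJ5465 were galactose-induced for 36–48 hours, stained 1 hour at 4 °C with 10% biotinylated, detergent-solubilized Sf9 membrane reagent and enriched on streptavidin microbeads. FACS then separated cells into low and high (top ~1%) gates by anti-HA (expression) and streptavidin (reagent binding) fluorescence. Genes were colony-PCR amplified, MiSeq 2 × 250 sequenced and CDR-length filtered. A clone's polyreactivity label is that of its gate of origin.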"}
{"sequence": "QVQLVESGGGLVHAGGSIRLSCAASGRIFGYYTMGWYRQAPGKERELVAAIRGNGGSTYYADSVKGLFTISRDNAKNTVYLQMHSLKPQDTAVYYCAATDISYRRVPYGRKKQYDYWGQGTQVTVSS", "polyreactivity (PSR sort gate)": "high polyreactivity"}
{"sequence": "QVQLVESGGGLVHAGGSIRLSCAASGRTFAYNDMGWYTQAPGTERELVAAISWSDGTTYYADSVKGRFTISRDNAKNPVYLQMHCLKPEDTAVYYCAAESYPSEVASYVSEYDYWGQGTQVTVSS", "polyreactivity (PSR sort gate)": "low polyreactivity"}
{"sequence": "QVQLVESGGGLVHAGGSLLLSCAASGRTFRTYTMGLYRQAPGKERELVAVITWTGGSTYYADSVKGRFTISRDNAKNTVYIQMNSLKPEDTAVYYCAARIITFSNVYNGYEYWGQGTQVTVSS", "polyreactivity (PSR sort gate)": "high polyreactivity"}
{"sequence": "QVQLVESGGGLVHAGGSLRLICAASGSIFQSYDMGWYRQAPGKERELVAAISWSGSTTYYADSVKGRFTISRDNAKNTVYLQMNSLKPEDTAVYYCAVDSNPPDWWAVIYGYWGQGTQVTVSS", "polyreactivity (PSR sort gate)": "low polyreactivity"}
{"sequence": "QVQLVESGGGLVHAGGSLRLSCAASGFIFTKNAMGWYRQAPGKDRELVAAITSSGGNTYYADSVKGRFTISRDNAKNTVYLQMNSLKPEDTAVYYCAASRFLRMYWGQGTQVTVSS", "polyreactivity (PSR sort gate)": "high polyreactivity"}
{"sequence": "QVQLVESGGGLVHAGGSLRLSCAASGFTFGYYALGWYRQAPGKERELVASISRSGGSTNYADSVKGRFTISRDNAKYTVYFQMNRLKPEDTAVYYCNKRVNTYRSGSRRYDYWGQGTQVTVSS", "polyreactivity (PSR sort gate)": "high polyreactivity"}
{"sequence": "QVQLVESGGGLVHAGGSLRLSCAASGIIFRFYAMGWYRQAPAKERELVAAISSGGSTYYADSVKGRFTISRDNAKNTVYLQMIRLKPEDTAVYYCNARVRYKRTVRYGYWGQGTQVTVSS", "polyreactivity (PSR sort gate)": "high polyreactivity"}
{"sequence": "QVQLVESGGGLVHAGGSLRLSCAASGLIFHHNAMGWYRQAPGKERELVAAISRSAGSTYYADSVKGRFTISRDNAKNTVYLQMNSLKPEDTAVYYCAKRPTPTSKYDTVGYGYWGQGTQVTVSS", "polyreactivity (PSR sort gate)": "low polyreactivity"}
{"sequence": "QVQLVESGGGLVHAGGSLRLSCAASGNTFWPYAMGWYRQAPGKERELVAAINYSGTRTYYSDSVKGRFTISRDNAKNTVYLQMNSLKPEDTAVYYCAKATSPPGTTAGGYDYWGQGTQVTVSS", "polyreactivity (PSR sort gate)": "low polyreactivity"}
{"sequence": "QVQLVESGGGLVHAGGSLRLSCAASGRIFGPYAMGWYRQAPGKERELVAAISRSGSTTYYAVSVKGRFTISRDNAKNTVYLQMNSLKPDDTAVYYCNGRRYRVVQSKPCDYWGQGTQVTVSS", "polyreactivity (PSR sort gate)": "high polyreactivity"}
{"sequence": "QVQLVESGGGLVHAGGSLRLSCAASGRIFRIYAMGWYRQAPGKERELVAAISRGGRTNYADSVKGRFTISRDNAKNTVYLQMNSLKPEDTAVYYCNATSNWGPTKVRFNYWGQGTQVTVSS", "polyreactivity (PSR sort gate)": "high polyreactivity"}
{"sequence": "QVQLVESGGGLVHAGGSLRLSCAASGRIFTAYAMGWYRQAPGKERELVASISTSGGRTYYADSVKGLFTISRDNAKNTVYLQMNSLIPEDTAVYYFAADFESYSRYYDGYDYWGQGTQVTVSS", "polyreactivity (PSR sort gate)": "high polyreactivity"}
{"sequence": "QVQLVESGGGLVHAGGSLRLSCAASGRIFTTNAMGWYRQAPGKERELVASITRSGSTYYADSVKGRFTISRDNAKNTVYLQMNSLKPEVTAVYYCAAYAYIFLDWGGYPYYLYEYDYWGQGTQVTVSS", "polyreactivity (PSR sort gate)": "low polyreactivity"}
{"sequence": "QVQLVESGGGLVHAGGSLRLSCAASGRIFTYYGMGWYRQAPGKERELVAAITWNGGSTYYADSVKGRFTISRDNAKNTVYLQMNSLKPEDTAVYYCNAVVYARSGGAQYGYWGQGTQVTVSS", "polyreactivity (PSR sort gate)": "low polyreactivity"}
{"sequence": "QVQLVESGGGLVHAGGSLRLSCAASGRIFYYYTKGWYRQEPGKERELVAAISSGGSTNYADSVKGRFTISRDNAKNTVYLQMNSLKPEHTAVYYWARYGGYWSLKYDYWGQGTQVTVSS", "polyreactivity (PSR sort gate)": "high polyreactivity"}
{"sequence": "QVQLVESGGGLVHAGGSLRLSCAASGRTFDIYAMGWYRQAPGKERELVAAISSGGSTYYADSVKGRFRISRDNAKKTVYLQKNSLKPEDTAVYYCAVRWYDQVSRRGIGYYWGQGTQVTVSS", "polyreactivity (PSR sort gate)": "low polyreactivity"}
{"sequence": "QVQLVESGGGLVHAGGSLRLSCAASGRTFKFYAMGWYRQAPGKERELVAAISGSGGTTRYADSVKGRFTISRDNAKNTVYLQMNSLKPEDTAVYYCAARPPGLALEYGYWGQGTQVTVSS", "polyreactivity (PSR sort gate)": "high polyreactivity"}
{"sequence": "QVQLVESGGGLVHAGGSLRLSCAASGRTFVSYAMGWYRQAPGKERELVAAITNAGSTYYADSVKGRFTISRDNAKNTVYLQMNSLKPEDTAVYYCAATYWDYWGYGYDYWGQGTQVTVSS", "polyreactivity (PSR sort gate)": "high polyreactivity"}
{"sequence": "QVQLVESGGGLVHAGGSLRLSCAASGRTVKNNAMGWYRQSPGKERDLVAAISSTGSTNYADSVKGRFTISRDNAKNPVYLQMNSLKPADTAVYYCAAEGIFRYYTQATMEYWGQGTQVTVSS", "polyreactivity (PSR sort gate)": "low polyreactivity"}
{"sequence": "QVQLVESGGGLVHAGGSLRLSCAASGSIFGRYVMGWYRQAPGKERELVAAITRSGGSTYYADSVKGRFTISRDNAKNTVYLQMNSLKPEDTAVYYCNADVNFIDDDYWGHGTQVTVSS", "polyreactivity (PSR sort gate)": "low polyreactivity"}
{"sequence": "QVQLVESGGGLVHAGGSLRLSCAASGSIFIYYAMGWYRQPPGKERELVAAIDRSGGNTYYADSVKGRFTISRDYAKTSVYLEMNSLKPEDTAVDYCAAQVHRRVQYDYWGQRTQVTVSS", "polyreactivity (PSR sort gate)": "high polyreactivity"}
{"sequence": "QVQLVESGGGLVHAGGSLRLSCAASGSIFPSNAMGWYREAPGKERELVAAISQSGGRTYYADSVKGRFTISRDNAKNTVYLQMNSLKPEDTAVYYCAADHRRAGMDYWGQGTQVTVSS", "polyreactivity (PSR sort gate)": "low polyreactivity"}
{"sequence": "QVQLVESGGGLVHAGGSLRLSCAASGSIFTWNGMGWYRQAPGKERELVAGMSYSGGITYTDSVKGRFTISRDNAKNTVYLQMNSLKPEDTAVYYCNARSKVAYYRHYYWGQGTQVTVSS", "polyreactivity (PSR sort gate)": "low polyreactivity"}
{"sequence": "QVQLVESGGGLVHAGGSLRLSCAASGSISTRNAMGWYRQAPGKDRELVASITSGGSTYYADSVKGRFTISRDNAKNTVYLQMNSLKPEDTAVYYCAARRRRPWGYGYGYWGQGTQVTVSS", "polyreactivity (PSR sort gate)": "high polyreactivity"}
{"sequence": "QVQLVESGGGLVHAGGSLRLSCAASGSTFDKYAMGWYRQAPGKERELVAAITWGGGSTYYADSVKGRFTISRDYAKNTVYLQMNSLKPEDTAVYYCNAYRVYAWIEYNYWGQGTQVTVSS", "polyreactivity (PSR sort gate)": "low polyreactivity"}
{"sequence": "QVQLVESGGGLVHAGGSLRLSCAASGSTFQLNAMGWYRQAPGKERELVAAISTRGGSTYYADSLKGRFTISRDNAKNTVYLQMNSLKPEDTAVYYCAARLYTRRDYWGQATQVTVSS", "polyreactivity (PSR sort gate)": "high polyreactivity"}
{"sequence": "QVQLVESGGGLVHAGGSLRLSCAASGSTFTRNAMGWYRQAPGKERELVATISWRSGSTYYADSVKGRFTISRDNAKNTVYLQMNSLKQEDTAGYYCAADYLNIYNYWGQGTQVTVSS", "polyreactivity (PSR sort gate)": "high polyreactivity"}
{"sequence": "QVQLVESGGGLVHAGGSLRLSCAASGSTFVRNAMGWYRPAPGKERQLVAAITSRGGSTYYADSVKGRFTISRDNAKNTVYLQMISLKPEDTAVYYCAARFGVKRGQYDYWGQGTQVTVSS", "polyreactivity (PSR sort gate)": "high polyreactivity"}
{"sequence": "QVQLVESGGGLVHAGGSLRLSCAASGSTFYSNVMGWYRQAPGKERELVAAISRSGGSTYYADSVKGRFTISRDNAKNTVYLQMNSLKAEDTAVYYCNRLRAPVRGDYWGQGTQVTVSS", "polyreactivity (PSR sort gate)": "high polyreactivity"}
{"sequence": "QVQLVESGGGLVHAGGSLRLSCAASGYTFDSYTMGWYRQAPGKERELVAAISGRGGSTYYADSVKGRFTISRDNAKNTVYIQMNSLKPEDTAVYYCNTYPPIGYDYWGQGTQVTVSS", "polyreactivity (PSR sort gate)": "low polyreactivity"}
{"sequence": "QVQLVESGGGLVHAGGSLRLSCAASGYTFPLYAMGWYRQAPGKERELVADINIGGASTYYADSVKGRFTISRDNAKNTVYLQMNSLKPEDTAVYYCAKEYYDGYFPTFDYDYWGQGTQVTVSS", "polyreactivity (PSR sort gate)": "low polyreactivity"}
